Reference: patent publication US20210246223A1 (CRD PHARMACEUTICALS, published 2021)

Tests used:
HER2 = target: T1, HER2 (UniProt P04626 23-652, limits assumed); experiment: ELISA, plate coated with 1 µg/ml HER2, increasing concentration of 29Z6
T1 construct: Coated on the ELISA plate at 1 µg/ml and also used in the western blot; also called ErbB2; Neu
Experimental: (§1) ELISA plate was coated with 1 μg/ml of EGFR, HER2, or extracellular domain of HER3. The ELISA was incubated with increasing concentration of 29Z6 followed by incubation with HRP-goat-anti mouse IgG to detect 29Z6 antibody binding. […] Confirmation of the binding specificity was undertaken using western blotting. Only HER3 was bound to 29Z6 while EGFR or HER2 didn't (FIG. 10).

[1] = target: T2, extracellular domain of HER3 (human, UniProt P21860 20-643); experiment: SPR (Biacore 3000), HER3 extracellular domain amine-coupled on CM5, 29Z6 mAb 0.1-300 nM as analyte, 1:1 model, 25° C.
T2 construct: extracellular domain; also called purified extracellular domain of HER3; HER3 receptor ectodomain
T2 sequence (P21860 20-643): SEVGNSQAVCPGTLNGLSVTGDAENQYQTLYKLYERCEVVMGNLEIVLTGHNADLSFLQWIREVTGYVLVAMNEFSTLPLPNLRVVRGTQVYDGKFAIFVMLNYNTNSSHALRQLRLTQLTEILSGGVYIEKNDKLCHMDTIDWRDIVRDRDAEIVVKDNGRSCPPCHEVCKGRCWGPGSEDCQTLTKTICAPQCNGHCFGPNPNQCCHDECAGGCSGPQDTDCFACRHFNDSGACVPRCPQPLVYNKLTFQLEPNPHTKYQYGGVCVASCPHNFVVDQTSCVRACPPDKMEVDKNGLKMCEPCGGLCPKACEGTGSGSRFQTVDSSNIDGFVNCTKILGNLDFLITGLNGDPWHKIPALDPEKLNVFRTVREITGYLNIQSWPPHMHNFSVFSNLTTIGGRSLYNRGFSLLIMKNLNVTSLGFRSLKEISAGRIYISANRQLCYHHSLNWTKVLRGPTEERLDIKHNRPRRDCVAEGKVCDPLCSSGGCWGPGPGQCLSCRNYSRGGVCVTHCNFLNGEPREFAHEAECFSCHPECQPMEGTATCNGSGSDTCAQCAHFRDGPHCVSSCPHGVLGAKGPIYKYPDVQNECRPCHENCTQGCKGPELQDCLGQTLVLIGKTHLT
Experimental: (§2) The binding kinetics of the 29Z6 mAb was analysed by surface plasmon resonance (SPR) using a Biacore3000 optical sensor platform equipped with research-grade CM5 sensor (GE Healthcare Bio-Sciences Corp., Piscataway, N.J.). Purified extracellular domain of HER3 was immobilized on the sensor chip surface of a carboxylated dextran-coated gold film using the standard amine coupling kit following the manufacturer's protocol. Briefly, 70 μL of a mixed solution of NHS/EDC (1:1, v/v) was injected to activate the carboxylated dextran, followed by manual injection of protein in 10 mM NaOAc (pH 4.5) until the desired surface density was reached. Ethanolamine 1 M in water (pH 8.5) was then injected to de-activate residual NHS-esters on the sensor chip. […] Kinetic data were evaluated by globally fitting the sensorgrams to a simple 1:1 interaction model using the Biacore software BiaEvaluation version 4.1 (GE Healthcare Bio-Sciences Corp.). The equilibrium KDs were determined from the resulting kinetic association and dissociation rates (kd/ka), and a minimum of nine independent runs were used to generate the reported standard deviations. A 1:1 binding model was used together with experimentally determined RMax as fixed parameter to determine association rate constant (ka), dissociation rate constant (kd), and equilibrium dissociation constant (KD). […]

[2] = target: T3, HER3-Fc fusion comprising the extracellular domain (aa 20-643) of human HER3 (human, UniProt P21860 20-643); experiment: ELISA, HER3-Fc coated at 1 µg/ml, serial dilution of IgG 29Z6, anti-mouse Fc-HRP detection
T3 construct: range 20-643; also called human HER3-Fc fusion protein
T3 sequence (P21860 20-643 limits assumed): as the sequence (P21860 20-643) above
Experimental: Antigen binding of IgG 29Z6 was analyzed in ELISA using immobilized HER3-Fc fusion comprising the extracellular domain (aa 20-643) of human HER3. The HER3-Fc fusion protein was coated onto polystyrene microtiter plates at 1 μg/ml in PBS. Remaining binding sites were blocked with PBS, 2% skimmed milk (MPBS). Plates were then incubated with a serial dilution of IgG 29Z6 in MPBS. After washing, bound antibody was detected with an HRP-conjugated anti-mouse Fc antibody and TMB, H₂O₂ as substrate.

EGFR = target: T4, EGFR (UniProt P00533 25-645, limits assumed); experiment: ELISA, plate coated with 1 µg/ml EGFR, increasing concentration of 29Z6
T4 construct: Coated on the ELISA plate at 1 µg/ml and also used in the western blot; also called HER1; ErbB1
Experimental: as §1

[3] = target: T2, extracellular domain of HER3; experiment: SPR (Biacore 3000), HER3 extracellular domain amine-coupled on CM5, 29Z6 mAb as analyte, 1:1 model, 25° C.
Experimental: as §2

binding result (HER2): no binding
Kd [1]: 0.8 nM
EC50 [2]: 0.88 nM
binding result (EGFR): no binding
koff [3]: 0.000295 s⁻¹
kon [3]: 188000 M⁻¹ s⁻¹
B1: anti-HER3 monoclonal antibody 29Z6 (antibody, mouse IgG2a, kappa, V domains shown)
VH: EVQLQESGPSLVKPSQTLSLTCYVTGDSITSGYWNWIRKFPGNKLEYMGYINYSGSTYYNPSLKSRISIIRDTSQNHYNLLLNSVTTEDTATYYCARLGTYYRYAGAMDYWGQGTSVTVSS
VL: DDVLTQTPLSLPVSLGDQASISCRSSQSLVHSNGNTYLHWYLQKPGQSPKLLIYKVSNRFSGVPDRFSGSGSGTDFTLKISRVEAEDLGVYFCSQSTHVPYTFGGGTKLEIKR
notes: also called IgG 29Z6; 29Z6 mAb
